Where “and” joins values, the source holds several entries; their conditions need not be identical. Equal values may be shown once. Read-outs that look alike come from different tables or passages of the source.
What was measured:
[1] = target: T1, SARS-CoV-2 spike protein, wild type, on live virus (SARS-CoV-2-mNG / USA-WA1/2020) (SARS-CoV-2, UniProt P0DTC2 13-1273); experiment: cell-based or functional assay
[2] = target: T2, recombinant Spike protein (Sino Biologicals Cat #40589-V08B1) (SARS-CoV-2, UniProt P0DTC2 13-1213); experiment: ELISA on coated recombinant spike
[3] = target: T3, recombinant SARS-CoV-2 Receptor Binding Domain (RBD) with a his tag (ATUM, Cat. 65639.1.a) (SARS-CoV-2, UniProt P0DTC2 319-541); experiment: ELISA on coated RBD-his
[4] = target: T3, recombinant SARS-CoV-2 Receptor Binding …
[5] = target: T2, recombinant Spike protein (Sino …); experiment: BLI (Octet), His-tagged S on Ni-NTA sensor, avidity
[6] = target: T1, SARS-CoV-2 spike protein, wild type, on …; experiment: cell-based or functional assay; remark: listed apart in the source
[7] = target: T2, recombinant Spike protein (Sino …); experiment: BLI (Octet), avidity to spike
[8] = target: T3, recombinant SARS-CoV-2 Receptor Binding …; remark: listed apart in the source

Binder	EC50 (neutralization of live SARS-CoV-2-mNG) [1]	Fold change of neutralization EC50 in nM (IgM-14 against IgG-14) [1]	Fold change of neutralization EC50 in µg/ml (IgM-14 against IgG-14) [1]	EC50 [2]	fold change of ELISA EC50 (IgM-14 against IgG-14) [2]	EC50 [3]	EC50 (read off the curve) [4]	Kd [5]	koff [5]	kon [5]	Neutralization EC50 [6]	fold change of KD (IgM-14 against IgG-14) [7]	fold change of Kdis (IgM-14 against IgG-14) [7]	fold change of Kon (IgM-14 against IgG-14) [7]	EC50 (read off the curve) [8]
anti-SARS-CoV2-14 IgM (lambda-VL-kappa-CL hybrid light chain) (antibody) heavy: EVQLQQSGPGLVKPSQTLSLTCAISGDSVSSNSAAWNWIRQSPSRGLEWLGRTYYRSKWYNDYAVSVKSRITINPDTSKNQFSLQLNSVTPEDTAVYYCAREEQQLVHDYYYYGMDVWGQGTMVTVSSGSASAPTLFPLVSCENSPSDTSSVAVGCLAQDFLPDSITFSWKYKNNSDISSTRGFPSVLRGGKYAATSQVLLPSKDVMQGTDEHVVCKVQHPNGNKEKNVPLPVIAELPPKVSVFVPPRDGFFGNPRKSKLICQATGFSPRQIQVSWLREGKQVGSGVTTDQVQAEAKESGPTTYKVTSTLTIKESDWLSQSMFTCRVDHRGLTFQQNASSMCVPDQDTAIRVFAIPPSFASIFLTKSTKLTCLVTDLTTYDSVTISWTRQNGEAVKTHTNISESHPNATFSAVGEASICEDDWNSGERFTCTVTHTDLPSPLKQTISRPKGVALHRPDVYLLPPAREQLNLRESATITCLVTGFSPADVFVQWMQRGQPLSPEKYVTSAPMPEPQAPGRYFAHSILTVSEEEWNTGETYTCVVAHEALPNRVTERTVDKSTGKPTLYNVSLVMSDTAGTCY VL: QAVVTQPASVSGSPGQSITISCTGTSSDIGAYNYISWYQQHPGKAPKLIIYEVSNRPSGISYRFSGSKSGNTASLTISGLQAEDEANYYCSSYAGSISFGGGTKVTVL not shown	0.01 µg/ml and 0.011 nM	236 fold	39 fold	0.046 nM	135 fold	0.7 nM	~0.7 nM	0.102 nM	0.00034 s⁻¹	3.35e+06 M⁻¹ s⁻¹	0.015 µg/mL	13.6 fold	0.26 fold	3.59 fold	–
anti-SARS-CoV2-09 IgM (antibody) VH: QVQLHQWGAGLLKPSETLSRTCAVYGGSFSGYYWTWIRQAPGKGLEWIGEINHGGSTRYNPSLESRVSISVDTSKKQFSLELRSVTAADTAIYYCARGYDTNWYGDGYNWFDPWDRGTLVTVSS VL: QSALTQDPSVSVALGQTVRITCQGDSLRGSFASWYRQKPGQAPVLVIFGINNRPSGVPDRFSGSSSGNTASLTITGAQAEDEADYYCNSRESNSNRILFGGGTKVTVL not shown	–	–	–	–	–	0.3 nM	–	–	–	–	–	–	–	–	~0.4 nM

Reference: US20220267415A1 (University of Texas, published 2022)
